PMC11969024, “Development of chemokine network inhibitors using combinatorial saturation mutagenesis” (Communications Biology, 2025)

B1: peptide HD2 (from tick evasin EVA4) / CCL17 (biotinylated, synthetic) (parent)
chain 1: EEDDYTAYAPLTCYFT
chain 2: ARGTNVGRECCLEYFKGAIPLRKLKTWYQTSEDCSRDAIVFVTVQGRAICSDPNNKRVKNAVKYLQSLERS
B2: peptide HD2 (from tick evasin EVA4) / CCL19 (biotinylated, synthetic) (parent)
chain 1: EEDDYTAYAPLTCYFT
chain 2: GTNDAEDCCLSVTQKPIPGYIVRNFHYLLIKDGCRVPAVVFTTLRGRQLCAPPDQPWVERIIQRLQRTSAKMKRRSS

Variants of: B1
Conditions: with CCL17 (biotinylated, synthetic); scale: log2

Variant	enrichment
chain 1 EEDCYTAYAPLTCYFT [chain 1 D4C]	-9.34
chain 1 CEDDYTAYAPLTCYFT [chain 1 E1C]	-9.85
chain 1 EEDDYTAYACLTCYFT [chain 1 P10C]	-9.82
chain 1 EEDDYTAYAHLTCYFT [chain 1 P10H]	-8.06
chain 1 EEDDYTAYAILTCYFT [chain 1 P10I]	-8.54
chain 1 EEDDYTAYAKLTCYFT [chain 1 P10K]	-7.07
chain 1 EEDDYTAYAMLTCYFT [chain 1 P10M]	-8.6
chain 1 EEDDYTAYANLTCYFT [chain 1 P10N]	-8.12
chain 1 EEDDYTAYARLTCYFT [chain 1 P10R]	-9.18
chain 1 EEDDYTAYASLTCYFT [chain 1 P10S]	-9.3
chain 1 EEDDYTAYAVLTCYFT [chain 1 P10V]	-10.5
chain 1 EEDDYCAYAPLTCYFT [chain 1 T6C]	-11.2
chain 1 EEDDETAYAPLTCYFT [chain 1 Y5E]	-3.59
chain 1 EEDDKTAYAPLTCYFT [chain 1 Y5K]	-5.7
chain 1 EEDDNTAYAPLTCYFT [chain 1 Y5N]	-7.81
chain 1 EEDDQTAYAPLTCYFT [chain 1 Y5Q]	-5.46
chain 1 EEDDRTAYAPLTCYFT [chain 1 Y5R]	-7.15

Variant	enrichment
chain 1 EEDDTTAYAPLTCYFT [chain 1 Y5T]	-7.77
chain 1 EEDDYTAAAPLTCYFT [chain 1 Y8A]	-8.88
chain 1 EEDDYTADAPLTCYFT [chain 1 Y8D]	-7.65
chain 1 EEDDYTAEAPLTCYFT [chain 1 Y8E]	-6.29
chain 1 EEDDYTAGAPLTCYFT [chain 1 Y8G]	-8.81
chain 1 EEDDYTAIAPLTCYFT [chain 1 Y8I]	-9.49
chain 1 EEDDYTAKAPLTCYFT [chain 1 Y8K]	-6.17
chain 1 EEDDYTAMAPLTCYFT [chain 1 Y8M]	-8.59
chain 1 EEDDYTANAPLTCYFT [chain 1 Y8N]	-8.23
chain 1 EEDDYTAPAPLTCYFT [chain 1 Y8P]	-7.97
chain 1 EEDDYTAQAPLTCYFT [chain 1 Y8Q]	-6.46
chain 1 EEDDYTARAPLTCYFT [chain 1 Y8R]	-8.29
chain 1 EEDDYTATAPLTCYFT [chain 1 Y8T]	-8.59
chain 1 EEDDYTAYAPLTCDFT [chain 1 Y14D]	-7.63
chain 1 EEDDYTAYAPLTCEFT [chain 1 Y14E]	-8.87
chain 1 EEDDYTAYAPLTCNFT [chain 1 Y14N]	-7
chain 1 EEDDYTAYAPLTCRFT [chain 1 Y14R]	-10.2

Variants of: B2
Conditions: with CCL19 (biotinylated, synthetic); scale: log2

Variant	enrichment
chain 1 EEDGYTAYAPLTCYFT [chain 1 D4G]	-5.19
chain 1 EEDDYTAYAPLTCQFT [chain 1 Y14Q]	-7.02
chain 1 EEDDYTAYAPLTRYFT [chain 1 C13R]	-9.52
chain 1 EEDDYTAYAPLTCSFT [chain 1 Y14S]	-8.64
chain 1 EQDDYTAYAPLTCYFT [chain 1 E2Q]	-3.87
chain 1 EEDDYTAYAPLTTYFT [chain 1 C13T]	-8.2
chain 1 EEDDYTAYAPLTCYIT [chain 1 F15I]	-5.23
chain 1 EEDDYTANAPLTCYFT [chain 1 Y8N]	-7.1
chain 1 EEDDYTAYHPLTCYFT [chain 1 A9H]	-7.18
chain 1 EEDDYTATAPLTCYFT [chain 1 Y8T]	-7.46
chain 1 EEDDYTAEAPLTCYFT [chain 1 Y8E]	-5.16
chain 1 EPDDYTAYAPLTCYFT [chain 1 E2P]	-6.02
chain 1 EEDDYTAYAILTCYFT [chain 1 P10I]	-7.41
chain 1 EEDDYTCYAPLTCYFT [chain 1 A7C]	-8.81
chain 1 EEDDYTACAPLTCYFT [chain 1 Y8C]	-8.65
chain 1 EEDDYTAYAPNTCYFT [chain 1 L11N]	-7.42
chain 1 EEDDYTAYAPDTCYFT [chain 1 L11D]	-8.06
chain 1 EEDDYTAYACLTCYFT [chain 1 P10C]	-8.69
chain 1 EKDDYTAYAPLTCYFT [chain 1 E2K]	-4.12
chain 1 EEDDYTAQAPLTCYFT [chain 1 Y8Q]	-5.33

Variant	enrichment
chain 1 EEDRYTAYAPLTCYFT [chain 1 D4R]	-6.06
chain 1 QEDDYTAYAPLTCYFT [chain 1 E1Q]	-3.57
chain 1 EEDDYTAYASLTCYFT [chain 1 P10S]	-8.17
chain 1 EEDDYTAPAPLTCYFT [chain 1 Y8P]	-6.84
chain 1 EEDDYTAYAPLTCYFP [chain 1 T16P]	-6.44
chain 1 EEDDYTAYAPLQCYFT [chain 1 T12Q]	-6.6
chain 1 EEDDYTAYAPLTCYNT [chain 1 F15N]	-5.7
chain 1 EEDDYTAYAPLTYYFT [chain 1 C13Y]	-7.72
chain 1 EEDDGTAYAPLTCYFT [chain 1 Y5G]	-6.08
chain 1 EEDDYTAYAPLTIYFT [chain 1 C13I]	-7.15
chain 1 EHDDYTAYAPLTCYFT [chain 1 E2H]	-6.61
chain 1 EEDDYTAKAPLTCYFT [chain 1 Y8K]	-5.04
chain 1 EEDDYTAYAPGTCYFT [chain 1 L11G]	-9.22
chain 1 EEMDYTAYAPLTCYFT [chain 1 D3M]	-6.81
chain 1 EEDDYTAYAPLTCEFT [chain 1 Y14E]	-7.73
chain 1 EEDDPTAYAPLTCYFT [chain 1 Y5P]	-5.7
chain 1 EECDYTAYAPLTCYFT [chain 1 D3C]	-8.87
chain 1 EEDDYTARAPLTCYFT [chain 1 Y8R]	-7.16
chain 1 EEDDYTAYAHLTCYFT [chain 1 P10H]	-6.93
chain 1 EEDDYTAYAPLTWYFT [chain 1 C13W]	-8.62

Variant	enrichment
chain 1 EEDDYTADAPLTCYFT [chain 1 Y8D]	-6.51
chain 1 EEDDKTAYAPLTCYFT [chain 1 Y5K]	-4.57
chain 1 EETDYTAYAPLTCYFT [chain 1 D3T]	-6.58
chain 1 EEDDYTAGAPLTCYFT [chain 1 Y8G]	-7.68
chain 1 EEDPYTAYAPLTCYFT [chain 1 D4P]	-6.04
chain 1 EEDDVTAYAPLTCYFT [chain 1 Y5V]	-8.24
chain 1 EEDNYTAYAPLTCYFT [chain 1 D4N]	-6.94
chain 1 EEDTYTAYAPLTCYFT [chain 1 D4T]	-6.85
chain 1 EEDDYTAYAKLTCYFT [chain 1 P10K]	-5.94
chain 1 EEQDYTAYAPLTCYFT [chain 1 D3Q]	-3.96
chain 1 EEDDYTAYAPLGCYFT [chain 1 T12G]	-9.27
chain 1 EEDDYTAYARLTCYFT [chain 1 P10R]	-8.05
chain 1 EEDDQTAYAPLTCYFT [chain 1 Y5Q]	-4.33
chain 1 EEDDYTAYAPLTHYFT [chain 1 C13H]	-7.62
chain 1 EEDDETAYAPLTCYFT [chain 1 Y5E]	-2.46
chain 1 EEDDYTAYAPLTMYFT [chain 1 C13M]	-8.49
chain 1 EEDDYTAYQPLTCYFT [chain 1 A9Q]	-6.19
chain 1 EEDDYTAIAPLTCYFT [chain 1 Y8I]	-8.35
chain 1 EEDEYTAYAPLTCYFT [chain 1 D4E]	-4.92
chain 1 EEDDATAYAPLTCYFT [chain 1 Y5A]	-6.04
